Measured values: article PMC7549792

Target: Human serum albumin domain I (human)
Assay: SEC; analytical Superdex 75 10/300 calibrated with known proteins; 100 uL of purified DomI at 90 ug/mL; Tris 50 mM, pH 8, 100 mM NaCl; 0.8 mL/min; dimer non-covalent by reducing and non-reducing SDS-PAGE

- stoichiometry N: 2
Substance: Human serum albumin domain I (domain or fragment)
